The source of these data is patent US20220041721A1 (WUHAN YZY BIOPHARMA, published 2022).

As usually defined, the EC50 is the concentration at which the effect is half-maximal.

The labels stand for the following.
B1: IC-6 (bispecific antibody, human IgG1, kappa)
scFv: EVQLVESGGGLVQPGGSLRLSCAASGFTFSTYAMNWVRQAPGKGLEWVARIRSKYNNYATYYADSVKDRFTISRDDSKNTLYLQMNSLRAEDTAVYYCARHGNFGNSYVSWFAYWGQGTMVTVSSGGGGSGGGGSGGGGSQAVVTQEPSLTVSPGGTVTLTCGSSTGAVTTSNYANWVQQKPGQAPRGLIGGTNKRAPGVPARFSGSLLGGKAALTLSGAQPEDEAEYYCALWYSNLWVFGGGTKLEIKGGGGSDKTHTCPPCPAPEFEGGPSVFLFPPKPKDTLMISRTPEVTCVVVDVSHEDPEVKFNWYVDGVEVHNAKTKPREEQYNSTYRVVSVLTVLHQDWLNGKEYKCKVSNKALPASIEKTISKAKGQPREPQVCTLPPSRDELTKNQVSLSCAVKGFYPSDIAVEWESNGQPENNYKTTPPVLDSDGSFFLVSKLTVDKSRWQQGNVFSCSVMHEALHNHYTQKSLSLSPGK
heavy: EVKLDETGGGLVQPGRPMKLSCVASGFTFSDYWMNWVRQSPEKGLEWVAQIRNKPYNYETYYSDSVKGRFTISRDDSKSSVYLQMNNLRVEDMGIYYCTGSYYGMDYWGQGTSVTVSSASTKGPSVFPLAPSSKSTSGGTAALGCLVKDYFPEPVTVSWNSGALTSGVHTFPAVLQSSGLYSLSSVVTVPSSSLGTQTYICNVNHKPSNTKVDKKVEPKSCDKTHTCPPCPAPEFEGGPSVFLFPPKPKDTLMISRTPEVTCVVVDVSHEDPEVKFNWYVDGVEVHNAKTKPREEQYNSTYRVVSVLTVLHQDWLNGKEYKCKVSNKALPASIEKTISKAKGQPREPQVYTLPPCRDELTKNQVSLWCLVKGFYPSDIAVEWESNGQPENNYKTTPPVLDSDGSFFLYSKLTVDKSRWQQGNVFSCSVMHEALHNHYTQKSLSLSPGK
light: DVVMTQTPLSLPVSLGDQASISCRSSQSLVHSNGNTYLRWYLQKPGQSPKVLIYKVSNRFSGVPDRFSGSGSGTDFTLKISRVEAEDLGVYFCSQSTHVPWTFGGGTKLEIKRTVAAPSVFIFPPSDEQLKSGTASVVCLLNNFYPREAKVQWKVDNALQSGNSQESVTEQDSKDSTYSLSSTLTLSKADYEKHKVYACEVTHQGLSSPVTKSFNRGEC
notes: Comparative: 4420 Fab arm and anti-CD3 scFv (CD3 antibody 1 VH, CD3 antibody 2 VL)-Fc fusion peptide
B2: MS-hCD3-IC17 (bispecific antibody, human IgG1, kappa)
scFv: QVQLVESGGGVVQPGRSLRLSCAASGFTFSTYAMNWVRQAPGKGLEWVARIRSKYNNYATYYADSVKDRFTISRDDSKNTLYLQMNSLRAEDTAVYYCARHGNFGNSYVSWFAYWGQGTLVTVSSGGGGSGGGGSGGGGSQTVVTQEPSLTVSPGGTVTLTCRSSTGAVTTSNYANWVQQKPGQAPRGLIGGTNKRAPGVPARFSGSLLGGKAALTLSGVQPEDEAEYYCALWYSNLWVFGGGTKVEIKGGGGSDKTHTCPPSPAPPVAGPSVFLFPPKPKDTLMISRTPEVTCVVVDVSHEDPEVQFNWYVDGVEVHNAKTKPREEQFNSTFRVVSVLTVVHQDWLNGKEYKCKVSNKGLPAPIEKTISKTKGQPREPQVCTLPPSRDELTKNQVSLSCAVKGFYPSDIAVEWESNGQPENNYKTTPPVLDSDGSFFLVSKLTVDKSRWQQGNVFSCSVMHEALHNHYTQKSLSLSPGK
heavy: EVKLDETGGGLVQPGRPMKLSCVASGFTFSDYWMNWVRQSPEKGLEWVAQIRNKPYNYETYYSDSVKGRFTISRDDSKSSVYLQMNNLRVEDMGIYYCTGSYYGMDYWGQGTSVTVSSASTKGPSVFPLAPSSKSTSGGTAALGCLVKDYFPEPVTVSWNSGALTSGVHTFPAVLQSSGLYSLSSVVTVPSSSLGTQTYICNVNHKPSNTKVDKKVEPKSCDKTHTCPPSPAPPVAGPSVFLFPPKPKDTLMISRTPEVTCVVVDVSHEDPEVQFNWYVDGVEVHNAKTKPREEQFNSTFRVVSVLTVVHQDWLNGKEYKCKVSNKGLPAPIEKTISKTKGQPREPQVYTLPPCRDELTKNQVSLWCLVKGFYPSDIAVEWESNGQPENNYKTTPPVLDSDGSFFLYSKLTVDKSRWQQGNVFSCSVMHEALHNHYTQKSLSLSPGK
light: B1 light
notes: 4420 Fab arm and anti-CD3 scFv (VH2a/VL5)-Fc fusion peptide, CH2 SG2; also called MS-hCD3-17
B3: MS-hCD3-IC16 (bispecific antibody, human IgG1, kappa)
scFv: B1 scFv with E1Q, L11V, G16R, M120L, A142T, G163R, A220V, L246V
heavy: B1 heavy
light: B1 light
notes: 4420 Fab arm and anti-CD3 scFv (VH2a/VL5)-Fc fusion peptide, CH2 FES
B4: IC-4 (bispecific antibody, human IgG1, kappa)
scFv: B1 scFv with G163R, V200T, A220V, E247T, I248V, K249L
heavy: B1 heavy
light: B1 light
notes: Comparative: 4420 Fab arm and anti-CD3 scFv (CD3 antibody 1 VH/VL)-Fc fusion peptide
B5: IC-5 (bispecific antibody, human IgG1, kappa)
scFv: B1 scFv with S30N, A49G, D68G, M120L
heavy: B1 heavy
light: B1 light
notes: Comparative: 4420 Fab arm and anti-CD3 scFv (CD3 antibody 2 VH/VL)-Fc fusion peptide
B6: MS-hCD3-IC18 (bispecific antibody, human IgG1, kappa)
scFv: B2 scFv with F112A, V178F
heavy: B2 heavy
light: B1 light
notes: 4420 Fab arm and anti-CD3 scFv (VH2j/VL5a)-Fc fusion peptide, CH2 SG2
B7: Y150-F8-1 (bispecific antibody, human IgG1, kappa)
scFv: EVQLVESGGGLVQPKGSLKLSCAASGFTFNTYAMNWVRQAPGKGLEWVARIRSKYNNYATYYADSVKDRFTISRDDSQSILYLQMNNLKTEDTAMYYCVRHGNFGNSYVSWFAYWGQGTLVTVSSGGGGSGGGGSGGGGSQAVVTQESALTTSPGETVTLTCRSSTGAVTTSNYANWVQEKPDHLFTGLIGGTNKRAPGVPARFSGSLIGDKAALTITGAQTEDEAIYFCALWYSNLWVFGGGTKLTVLGDGDGSDKTHTCPPCPAPEFEGGPSVFLFPPKPKDTLMISRTPEVTCVVVDVSHEDPEVKFNWYVDGVEVHNAKTKPREEQYNSTYRVVSVLTVLHQDWLNGKEYKCKVSNKALPASIEKTISKAKGQPREPQVCTLPPSRDELTKNQVSLSCAVKGFYPSDIAVEWESNGQPENNYKTTPPVLDSDGSFFLVSKLTVDKSRWQQGNVFSCSVMHEALHNHYTQKSLSLSPGK
heavy: EVQLLESGGGLVQPGGSLRLSCAVSGFTFNSFAMSWVRQAPGKGLEWVSAISGSGGGTYYADSVKGRFTISRDNSKNTLYLQMNSLRAEDTAVYFCAKDKILWFGEPVFDYWGQGTLVTVSSASTKGPSVFPLAPSSKSTSGGTAALGCLVKDYFPEPVTVSWNSGALTSGVHTFPAVLQSSGLYSLSSVVTVPSSSLGTQTYICNVNHKPSNTKVDKKVEPKSCDKTHTCPPCPAPEFEGGPSVFLFPPKPKDTLMISRTPEVTCVVVDVSHEDPEVKFNWYVDGVEVHNAKTKPREEQYNSTYRVVSVLTVLHQDWLNGKEYKCKVSNKALPASIEKTISKAKGQPREPQVYTLPPCRDELTKNQVSLWCLVKGFYPSDIAVEWESNGQPENNYKTTPPVLDSDGSFFLYSKLTVDKSRWQQGNVFSCSVMHEALHNHYTQKSLSLSPGK
light: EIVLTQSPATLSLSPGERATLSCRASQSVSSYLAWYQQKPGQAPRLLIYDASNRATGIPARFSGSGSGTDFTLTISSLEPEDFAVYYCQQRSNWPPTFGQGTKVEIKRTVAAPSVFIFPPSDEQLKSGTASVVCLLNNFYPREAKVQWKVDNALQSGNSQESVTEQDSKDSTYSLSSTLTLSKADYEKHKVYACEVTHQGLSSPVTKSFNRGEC
notes: Comparative: anti-CD38 (Dara) Fab arm and anti-CD3 scFv (SP34)-Fc fusion peptide, CH2 FES
B8: Y150-F8-2 (bispecific antibody, human IgG1, kappa, N297Q)
scFv: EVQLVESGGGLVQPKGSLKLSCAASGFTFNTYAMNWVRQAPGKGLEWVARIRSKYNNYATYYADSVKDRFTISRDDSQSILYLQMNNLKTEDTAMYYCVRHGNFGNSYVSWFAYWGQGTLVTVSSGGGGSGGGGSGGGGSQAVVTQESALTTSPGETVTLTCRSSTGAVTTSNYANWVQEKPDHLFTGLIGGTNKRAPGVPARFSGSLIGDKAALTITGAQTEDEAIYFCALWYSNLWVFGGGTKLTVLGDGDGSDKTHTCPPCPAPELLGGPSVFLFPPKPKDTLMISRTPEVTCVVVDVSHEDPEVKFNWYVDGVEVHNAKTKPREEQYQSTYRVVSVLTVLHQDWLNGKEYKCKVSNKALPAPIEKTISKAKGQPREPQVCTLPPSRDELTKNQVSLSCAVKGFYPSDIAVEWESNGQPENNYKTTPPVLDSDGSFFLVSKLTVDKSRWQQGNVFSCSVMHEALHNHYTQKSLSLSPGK
heavy: B7 heavy with F239L, E240L, N302Q, S336P
light: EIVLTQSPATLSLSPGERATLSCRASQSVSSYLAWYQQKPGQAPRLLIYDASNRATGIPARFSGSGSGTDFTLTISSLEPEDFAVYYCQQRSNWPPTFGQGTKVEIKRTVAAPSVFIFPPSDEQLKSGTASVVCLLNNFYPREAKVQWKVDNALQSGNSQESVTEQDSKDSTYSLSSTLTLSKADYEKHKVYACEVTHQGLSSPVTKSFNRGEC
notes: Comparative: anti-CD38 (Dara) Fab arm and anti-CD3 scFv (SP34)-Fc fusion peptide, CH2 N297Q

Positions count from the first letter of the chain named. Numbers in names are those of the source.

The first experiment has as its target T1, monkey CD3 (monkey).
T1 construct: whole, on cells; also called CD3 on monkey CD3 positive T cells
In words: flow cytometry on monkey CD3 positive T cells. A general note: A flow cytometer gives signals particle by particle.
In turn, B1 came in with an EC50 of 154 nM. For the molecule B2, the EC50 came out at 222 nM. Same read-out and setting: the same measure for B3: 295 nM; for B4: 296 nM; for B5: 161 nM. On the same count and under the same terms, the same measure for B6: 680 nM; for B7: 152 nM; for B8: 102 nM.

The target of another experiment is T2, human CD3 (human, UniProt P07766 23-207).
T2 construct: whole, on cells; Assays used CD3 positive T cells (or CIK cells) from human blood; also called Human CD3ϵ; CD3 on human CD3 positive T cells
In words: flow cytometry on human CD3 positive T cells.
Molecule B1 gave an EC50 of 118 nM.

On to B2, for which the EC50 came to 122 nM. The molecule B3 displayed an EC50 of 170 nM. Consider B4, for which it took 197 nM to reach a half-maximal effect (EC50).

Regarding B5, the EC50 came out at 122 nM.

As to B6, a half-maximal response (EC50) required 582 nM.
